Experiments:
[1] = system: 3T3 F442A adipose cells; test: Integrin-like signaling in adipose cells, immunoblot; type: cell-based, murine; settings: irisin 10 minutes
Method: Differentiated 3T3 F442A adipose cells were incubated in serum free medium for 4 hours followed by treatment of indicated concentrations of irisin for 10 minutes. Cells were lysed to detect the indicated protein level using immunoblot analysis.
Certain materials and methods were used to generate the results described herein. For example, the data shown in FIG. 1A resulted from MLO-Y4 (an osteocyte-like cell line) cells treated with the indicated concentration of irisin and hydrogen peroxide for 4 hours. Cells were stained with Hoechst 33342 (ThermoFisher Scientific, catalog number H3570) and Eth-D1 (ThermoFisher Scientific, catalog number E1169) and analyzed to determine the percentage of cell death using ImageJ. […] Co-precipitated irisin was analyzed by immunoblot analysis against flag tag (Sigma Aldrich, catalog number A8592). The data shown in FIGS. 5A and 5B were generated from MLO-Y4 cells treated and analyzed as in the experiments used to generate the data shown in FIG. 2D, except that pre-treatment of 100 nM RGDS (FIG. 5A) or echistatin (R & D Systems Inc., catalog number 3202/100U) (FIG. 5B) for 10 minutes was performed before irisin treatment. […] Sclerostin mRNA level was analyzed by qPCR (FIG. 7A). […] Epididymal fats were collected, RNAs were extracted from the tissues, and mRNA levels of the indicated genes were analyzed by qPCR. […]

[2] = target: T1, integrin α5/β1 (Homo sapiens, UniProt P05556+P08648); test: FAK phosphorylation in HEK293T cells with forced expression of integrin α5/β1; type: cell-based
T1 construct: expressed in transfected cells; host or cells: HEK293T
T1 sequence (P08648 42-894 limits assumed): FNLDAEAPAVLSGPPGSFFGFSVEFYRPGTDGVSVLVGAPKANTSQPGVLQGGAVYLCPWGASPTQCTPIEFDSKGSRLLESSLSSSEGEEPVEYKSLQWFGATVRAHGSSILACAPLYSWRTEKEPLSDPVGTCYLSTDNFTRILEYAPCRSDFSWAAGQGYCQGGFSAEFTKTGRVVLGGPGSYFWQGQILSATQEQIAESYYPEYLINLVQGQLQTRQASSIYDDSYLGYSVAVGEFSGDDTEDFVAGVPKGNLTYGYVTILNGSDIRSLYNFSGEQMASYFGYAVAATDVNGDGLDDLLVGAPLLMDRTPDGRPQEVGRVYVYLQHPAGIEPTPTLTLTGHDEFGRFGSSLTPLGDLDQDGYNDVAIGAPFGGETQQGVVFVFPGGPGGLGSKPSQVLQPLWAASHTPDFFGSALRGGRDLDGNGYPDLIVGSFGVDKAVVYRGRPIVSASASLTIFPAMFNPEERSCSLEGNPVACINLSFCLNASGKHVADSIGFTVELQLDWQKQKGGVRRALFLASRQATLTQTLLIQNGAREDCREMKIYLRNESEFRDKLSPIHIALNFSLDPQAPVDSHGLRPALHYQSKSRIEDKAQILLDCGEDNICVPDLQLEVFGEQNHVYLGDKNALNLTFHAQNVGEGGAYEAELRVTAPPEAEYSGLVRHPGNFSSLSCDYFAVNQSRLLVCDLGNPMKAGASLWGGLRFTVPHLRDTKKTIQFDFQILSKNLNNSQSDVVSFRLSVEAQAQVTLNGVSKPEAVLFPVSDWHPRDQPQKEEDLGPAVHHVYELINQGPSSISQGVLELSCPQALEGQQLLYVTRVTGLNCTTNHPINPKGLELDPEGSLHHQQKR
T1 sequence (P08648 895-1049 partner limits assumed): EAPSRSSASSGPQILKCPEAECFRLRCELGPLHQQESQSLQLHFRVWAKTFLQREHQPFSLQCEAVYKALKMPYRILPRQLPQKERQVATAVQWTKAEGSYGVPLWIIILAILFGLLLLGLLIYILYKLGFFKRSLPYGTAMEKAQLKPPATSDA
T1 sequence (P05556 21-798): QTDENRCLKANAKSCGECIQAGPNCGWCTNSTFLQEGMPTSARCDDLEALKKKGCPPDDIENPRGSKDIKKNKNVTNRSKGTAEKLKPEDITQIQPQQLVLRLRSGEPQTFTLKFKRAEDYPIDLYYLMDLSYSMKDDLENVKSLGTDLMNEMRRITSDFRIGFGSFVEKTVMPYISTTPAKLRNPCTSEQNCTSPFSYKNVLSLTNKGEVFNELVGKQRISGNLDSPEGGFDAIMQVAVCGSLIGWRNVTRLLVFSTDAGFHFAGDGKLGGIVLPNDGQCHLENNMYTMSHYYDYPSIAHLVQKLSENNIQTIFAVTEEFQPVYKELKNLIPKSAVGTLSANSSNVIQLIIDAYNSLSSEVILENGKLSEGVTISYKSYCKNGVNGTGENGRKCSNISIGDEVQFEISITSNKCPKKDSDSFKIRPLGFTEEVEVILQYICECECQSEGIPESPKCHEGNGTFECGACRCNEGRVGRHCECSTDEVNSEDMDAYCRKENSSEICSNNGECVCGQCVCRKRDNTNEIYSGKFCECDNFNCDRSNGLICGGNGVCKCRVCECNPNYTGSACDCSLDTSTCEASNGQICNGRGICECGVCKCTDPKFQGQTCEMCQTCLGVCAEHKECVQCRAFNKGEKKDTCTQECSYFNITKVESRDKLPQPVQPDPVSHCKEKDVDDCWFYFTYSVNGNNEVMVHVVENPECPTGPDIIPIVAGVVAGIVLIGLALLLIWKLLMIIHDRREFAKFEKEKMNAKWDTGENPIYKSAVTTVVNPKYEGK
Method: 100 nM irisin was incubated with 5 nM indicated his-tag integrins followed by immunoprecipitation using Ni-NTA agaroses. Precipitated integrins and co-precipitated irisin were analyzed by immunoblot analysis. […] HEK293T cells were seeded and incubated until 50% cell density. The cells were transfected with 0.1 μg plasmids of indicated integrins. After 48 hours, the cells were re-split to indicated dose of vitronectin-coated plates. Cells were incubated with culture medium for 3 hours. Cells were lysed to detect the indicated protein level using immunoblot analysis. FIG. 15C and FIG. 15D show the immunoblot data. Cells were treated and analyzed as FIG. 14B except using plasmids encoding integrin α5/β1 or integrin α11/β1 (FIG. 15C) integrin αV/β1(FIG. 15D).
HEK293T cells were set up for experiments at 1×10^5 cells per well in 6 well plate. On day 2, cells were transiently transfected with the indicated plasmids with FuGENE® 6 reagent (Roche Applied Science) according to the manufacturer's protocol. […]
Cells were harvested in RIPA buffer containing protease-inhibitor cocktail and phosphataseinhibitor cocktail. […] Protein levels were analyzed via western blot using indicated antibody. […] Protein levels were analyzed using western blot against indicated antibody.

B1: irisin: secreted cleaved form of FNDC5; recombinant human/mouse irisin with C-terminal his tag produced in HEK293 cells (protein)
chain: DSPSAPVNVTVRHLKANSAVVSWDVLEDEVVIGFAISQQKKDVRMLRFIQEVNTTTRSCALWDLEEDTEYIVHVQAISIQGQSPASEPVLFKTPREAEKMASKNKDEVTMKE
modifications: left off: small tags and cut ends
notes: secreted cleaved form of FNDC5; recombinant human/mouse irisin with C-terminal his tag produced in HEK293 cells
[1]
  irisin dose at which phosphorylation of FAK and CREB were observed: 30 pM
[2]
  phosphorylation of FAK upon irisin treatment: little phosphorylation of FAK above background
